In patent publication US20070105771A1 one finds Mean Signal Value data, which are given here for one molecule.

What all share (assay): peptide microarray
Assay [1] concerns the target T1, human CD26-derived 13 mer peptide 121 (human).
T1 sequence (peptide): TAPASMLIGDHYL

For assay [2], the target named is T2, human CD26-derived 13 mer peptide 125 (human).
T2 sequence (peptide): GDHYLCDVTWATQ

The target of assay [3] is T3, human CD26-derived 13 mer peptide 13 (human).
T3 sequence (peptide): QENNILVFNAEYG

The target in assay [4] is T4, human CD26-derived 13 mer peptide 16 (human).
T4 sequence (peptide): VFNAEYGNSSVFL

Assay [5] addresses T5, human CD26-derived 13 mer peptide 29 (human).
T5 sequence (peptide): DYSISPDGQFILL

Assay [6] concerns the target T6, human CD26-derived 13 mer peptide 31 (human).
T6 sequence (peptide): SPDGQFILLEYNY

For assay [7], the target named is T7, human CD26-derived 13 mer peptide 69 (human).
T7 sequence (peptide): RITWTGKEDIIYN

Assay [8] addresses T8, human CD26-derived 13 mer peptide 91 (human).
T8 sequence (peptide): FNDTEVPLIEYSF

B1: rhuMAb 411 (antibody, human IgG1, kappa, V domains shown)
VH: EVQLVESGAGVKQPGGTLRLTCTASGFSLTTYGVHWVRQAPGKGLEWVGVIWGDGRTDYDAAFMSRVTISKDTSKSTVYLQMNSLRAEDTAVYYCMRNRHDWFDYWGQGTTVTVSS
VL: DILLTQSPSSLSATPGERATITCRASQGIRNNLNWYQQKPGQAPRLLIYYSSNLQSGVPSRFSGSGSGTDFTLTISRLQPEDVAAYYCQQSIKLPFTFGSGTKVEIKR
With B1, the Mean Signal Value in assay [1] is 2.08; in assay [2] it was 1.8; in assay [3], 1.94; in assay [4], 1.92; in assay [5] it was 2.16; in assay [6] it was 2.33. Moreover, the Mean Signal Value turned out to be 2.45 in assay [7] and 2.3 in assay [8].
